Reference: the supplement of paper PMC10567573

B1: INTS3 (parent)
chain: DLNSKGKKREFRFHPIKETVVEEP

Variants of: B1
Assay: protein stability index of a GFP-peptide fusion (GPS, HEK-293T) (PSI 1-6); higher = more stable
Details: c terminus: a fixed tail appended
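Further: lentivirally expressed fusions sorted by FACS into six bins by GFP to DsRed ratio, PSI derived from sequencing read proportions per bin multiplied by bin number.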

Protein stability index: each site, then its substitutions
P24: W 2.84 | T 2.38 | Y 2.32 | N 2 | S 2.22 | Q 2.03 | M 1.92 | K 2.08 | R 2.19 | L 2.35 | V 2.46
